The record followed here is the supplement of paper PMC9170038.

For the series, the system named is MS2 coat protein. Put plainly: apparent KD of MS2 coat protein; designed switch direction (-1 OFF switch, 1 ON switch): -1; higher = weaker reporter binding. The method in brief: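 On Illumina chips, designed RNA switches with common flanks were made by stalled E. coli RNA polymerase. Titrations with SNAP-549-labelled MS2 coat protein, doubling from 0.7 or 1.5 nM to 3 µM, were done with no input, with 200 uM small-molecule ligand, or with an oligonucleotide input. Apparent KD is the median per design over clusters, from curve fits of normalised cluster fluorescence.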

The mark [1] stands for this setting: input ligand: microRNA oligo, concentration not stated.
Where [2] appears, read: Eterna round: R95, input ligand: FMN 200 uM.
Setting [3] is: Eterna round: R95, input ligand: microRNA oligo, concentration not stated.
Setting [4] is: Eterna round: R95, input ligand: none.

As to “GCAGCAAAUUCCACUAAAACCACAUGAGGAUCACCCAUGUCUCAGGAUAUGGUCUGGAUUACAGGCCAGAAGGGAGAAAGCUGC [Eli exng3 - 056] (Eterna round: R96, puzzle: Exclusion NG 3)”, the “apparent KD of MS2 coat protein” value (input ligand: FMN 200 uM) came out at 0.0123 µM, the “apparent KD of MS2 coat protein” value under setting [1] is 0.00952 µM and the “apparent KD of MS2 coat protein” value (input ligand: none) was 0.0148 µM.
As to “UCACAGUUAGGAUAUGCGAGUUUGGUGUGCAUCCUAGACAUACAUGAGGAUCACCCAUGUAGAAGGAAUAGUGG [Eternabot (L2) Solution 80] (Eterna round: R97, puzzle: Exclusion 2)”, the “apparent KD of MS2 coat protein” value is, setting by setting: (input ligand: FMN 200 uM) 0.0345 µM; (input ligand: none) 0.0271 µM.
On the same counts, the results for “UGUAGUUCAGGAUAUGAUGUUUAAUACAUGAGGAUCACCCAUGUAGAUCCUGAAUUUACAUCAGAAGGGAAUAUUU [JL-ex5-4.57 Brourd mod] (Eterna round: R97, puzzle: Exclusion 5)” are 0.0173 µM and 0.0149 µM.
For the sequence “GUAGAGUCAGGAUAUACGAGAUCGAAAGAUCAGCGAUCCUUACAUGAGGAUCACCCAUGUAGAAGGGACUCUAC [Omei mod 11 to Eli's favorate candidate (ch.parushev)] (Eterna round: R97, puzzle: Exclusion 2)”, the “apparent KD of MS2 coat protein” value by setting is: (input ligand: FMN 200 uM) 0.254 µM; (input ligand: none) 0.0243 µM.
With “CCAUCGAGUGUGAGGAUAUGCUGGUCCAUAGAUCAGCAGAAGGCACAUGAGGAUCACCCAUGUGGAGACGGUGG [Mat - Exclusion 4 - JL Mod - D78] (puzzle: Brourd's mod of Exclusion 4)”, the “apparent KD of MS2 coat protein” value came out at 0.418 µM under setting [2], 0.0344 µM under setting [3] and 0.0366 µM under setting [4].
In the case of “UGAUCAAAUGUCAGGAUAUGCUGUUGGAAACAACAGCAGAAGGGACAUGAGGAUCACCCAUGUCUUGUCGAUUU [Magic-02] (puzzle: Brourd's mod of Exclusion 4)”, the “apparent KD of MS2 coat protein” value under setting [3] was 0.0204 µM.
Regarding “CGUACUGAAGUGAGGAUAUUGUCUCGGAUACGAAACAAGAAGGCACAUGAGGAUCACCCAUGUUAACAGUACGA [Malc #30 mod 9] (puzzle: Brourd's mod of Exclusion 4)”, the “apparent KD of MS2 coat protein” value came out at 0.0152 µM under setting [2], 0.0192 µM under setting [3] and 0.0145 µM under setting [4].
On to “ACCGAACAUGAGGAUCACCCAUGUGAGGAUAUCCCGAGAUUAAAUGCCGCAAGAAGGCGGAGAAGGCGCAUGGG [Ditiesre] (puzzle: Exclusion 1)”, for which the “apparent KD of MS2 coat protein” value was 0.0452 µM under setting [2], 0.0237 µM under setting [3] and 0.0313 µM under setting [4].
As for “GUUUGCGCAGGAUAUACUCCUCCAUGUUAAGAGCAUGUGCGACAUGAGGAUCACCCAUGUAGAAGGGCGAGACG [Eternabot (L2) Solution 8] (Eterna round: R97, puzzle: Exclusion 2)”, the “apparent KD of MS2 coat protein” value is, setting by setting: (input ligand: FMN 200 uM) 0.194 µM; (input ligand: none) 0.345 µM.
Regarding “ACAUGAGGAUCACCCAUGUCUGGCUGGUCCGCUCCGGCUGUUGAGGAUAUAGCUCGGUGUCCGCGCUAGAAGGUGAGGGCCGGC [Aenatbe mod 33] (Eterna round: R96, puzzle: Exclusion NG 3)”, the “apparent KD of MS2 coat protein” value came to 0.0224 µM (input ligand: FMN 200 uM), 0.0186 µM under setting [1] and 0.0251 µM (input ligand: none).
The corresponding values for “ACAUGAGGAUCACCCAUGUGCCCAUCUAGCACAUGUCCUCGCUAGGAUAUGUAGGCCUCGACGCCGCAGAAGGAGCUAAAAGAG [Raatlaan] (Eterna round: R96, puzzle: Exclusion NG 3)” are 0.129 µM, 0.0446 µM and 0.0645 µM.
In the case of “CGUGACUCAGGAUAUCUAUAAUAUCACAUGAGGAUCACCCAUGUCCAGCGAAAGCUGGAGGGAGAAGGGAGUCACG [Fiskers Ex 5 - 35] (puzzle: Exclusion 5)”, the “apparent KD of MS2 coat protein” value reads like this: under setting [2], 0.0328 µM; under setting [3], 0.164 µM; under setting [4], 0.146 µM.
In the case of “UGAGCAUGAGGAUAUACAAGGCGACCGUGAGGUCGAGGGUUACAUGAGGAUCACCCAUGUAGAAGGCAUGUUCU [jl-ex2-4.10] (Eterna round: R97, puzzle: Exclusion 2)”, the “apparent KD of MS2 coat protein” value stood at 0.514 µM (input ligand: FMN 200 uM) and 0.0483 µM (input ligand: none).
In the case of “AUGGGACAUGAGGAUCACCCAUGUCAGGAUAUGCUCUGAUGCGGCGUACGCCGUGCUAGCAGAAGGGACUACCU [EX1 C.19] (Eterna round: R97, puzzle: Exclusion 1)”, the “apparent KD of MS2 coat protein” value is 0.029 µM (input ligand: FMN 200 uM) and 0.028 µM (input ligand: none).
“UAUAUGUCAGGAUAUUAGUAGUGGAUGAAUAAGAUUAUUGCUGAGAAGGGACAUGAGGAUCACCCAUGUUCCUC [JR_Ex4_Sub002] (Eterna round: R97, puzzle: Exclusion 4)”: the “apparent KD of MS2 coat protein” value stood at 0.0275 µM (input ligand: FMN 200 uM) and 0.0185 µM (input ligand: none).
Take “GCAGGAUAAGUGAGGAUAUACCUCUGGAUACAGAGGUAGAAGGCACAUGAGGAUCACCCAUGUCAUUCACCUGC [Fiskers BMX 4 - 77] (puzzle: Brourd's mod of Exclusion 4)”: the “apparent KD of MS2 coat protein” value under setting [3] was 0.0144 µM.
With “CAGUACUGAGGAUAUACAUGAGGAUCACCCAUGUGUUCCAGCUAGGAAACUAGCAAGAGUAGAAGGCAGUACUG [salish99_ex3_r3_066] (puzzle: Exclusion 3)”, the “apparent KD of MS2 coat protein” value under setting [3] came to 0.0241 µM.
On to “UGUUGUUACGUAGGAUAUGAGGAUCACCCAUAGAAGGAUAUCGAAAGAGAAGGUCUGAGGAUUACCCAGAAGGACGGGUUAACA [pwkr exNG2 2xF5 2xFMN.4] (Eterna round: R96, puzzle: Exclusion NG 2)”, for which the “apparent KD of MS2 coat protein” value was 1.34 µM (input ligand: FMN 200 uM), 0.131 µM under setting [1] and 0.139 µM (input ligand: none).
With “AUGAACAAGCUUUUUGCAAACAUGAGGAUCACCCAUGUCUUAUAUCGUACCAUGCUAGGCCCUAGCAUGGUACGAUU [jl sellena mod 2] (Eterna round: R97, puzzle: Sensor, turn-off variant 1)”, the “apparent KD of MS2 coat protein” value is 0.0176 µM (input ligand: FMN 200 uM) and 0.0146 µM (input ligand: none).
As for “ACAUGUAUUGCAGGAUAUGGGACACAUGAGGAUCACCCAUGUGACCAUAUGUAAUGCCACGGGUCUCAGAAGGGUAUGUACAUG [Ex NG2 #44] (Eterna round: R96, puzzle: Exclusion NG 2)”, the “apparent KD of MS2 coat protein” value worked out at 0.0128 µM (input ligand: FMN 200 uM), 0.0103 µM under setting [1] and 0.0141 µM (input ligand: none).
“AUUGUAUAGGAAGGAUAUAGAAUAUUAUUUUAACAUGAGGAUCACCCAUGUAACCUUAUGUGUAGCUAGAAGGUCCAUUUAUUA [Title] (Eterna round: R96, puzzle: Exclusion NG 2)”: the “apparent KD of MS2 coat protein” value under setting [1] was 0.0902 µM.
Turning to “CGGGUCGGAGGAUAUACAGAAGCAUCUGUGUCGGGAAUAUGACAUGAGGAUCACCCAUGUAGAAGGCCGAUCAC [Eternabot (L2) Solution 98] (Eterna round: R97, puzzle: Exclusion 2)”, the “apparent KD of MS2 coat protein” value (input ligand: FMN 200 uM) was 0.485 µM and the “apparent KD of MS2 coat protein” value (input ligand: none) came to 0.08 µM.
Regarding “UUUUACAUCUAUGGGAGUGACAUGAGGAUCACCCAUGUAUGUCUUGUUUUUUGUUCGUCUAGGACUUUCUGAUCAGU [JR_SV3TOV1_Sub033] (puzzle: Sensor v3, turn-off variant 1)”, the “apparent KD of MS2 coat protein” value is, setting by setting: under setting [2], 0.565 µM; under setting [3], 0.222 µM; under setting [4], 0.73 µM.
